From PMC11931385, “Structural and functional analysis of cancer-associated missense variants in the retinoblastoma protein pocket domain” (The Journal of Biological Chemistry, 2025)
No end group written: not given here. TMR = tetramethyl rhodamine dye

What was measured:
Conditions in all cases: both partners purified
[1] = target: T1, Rb^P M704V (human, UniProt P06400 380-788, M704V); assay: fluorescence polarisation; 25 °C after warming to 37 °C (7 min ramp, 2 min at 37 °C), 1 min on ice and 3 min at 25 °C; unlabeled Rb^P against 1.5 nM TMR-E2F1^TD or 7.5 nM TMR-E7^LxCxE; 25 mM Tris pH 8.0, 200 mM NaCl, 1 mM DTT, 0.1% Tween-20; apparent Kd
T1 construct: also called variant 66
T1 sequence (looked up): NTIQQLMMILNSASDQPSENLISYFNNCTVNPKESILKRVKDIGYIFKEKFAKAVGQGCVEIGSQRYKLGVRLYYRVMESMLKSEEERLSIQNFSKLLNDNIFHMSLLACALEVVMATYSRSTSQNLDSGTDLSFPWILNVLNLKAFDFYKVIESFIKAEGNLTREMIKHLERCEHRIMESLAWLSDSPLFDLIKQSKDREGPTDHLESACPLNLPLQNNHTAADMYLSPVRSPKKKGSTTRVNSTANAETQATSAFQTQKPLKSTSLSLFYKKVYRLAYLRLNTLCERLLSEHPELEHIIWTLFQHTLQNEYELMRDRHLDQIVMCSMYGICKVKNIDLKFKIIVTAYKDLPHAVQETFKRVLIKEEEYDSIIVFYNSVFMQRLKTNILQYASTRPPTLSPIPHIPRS

[2] = target: T2, Rb^P I703F (human, UniProt P06400 380-788, I703F); assay: as above
T2 construct: also called variant 64
T2 sequence (looked up): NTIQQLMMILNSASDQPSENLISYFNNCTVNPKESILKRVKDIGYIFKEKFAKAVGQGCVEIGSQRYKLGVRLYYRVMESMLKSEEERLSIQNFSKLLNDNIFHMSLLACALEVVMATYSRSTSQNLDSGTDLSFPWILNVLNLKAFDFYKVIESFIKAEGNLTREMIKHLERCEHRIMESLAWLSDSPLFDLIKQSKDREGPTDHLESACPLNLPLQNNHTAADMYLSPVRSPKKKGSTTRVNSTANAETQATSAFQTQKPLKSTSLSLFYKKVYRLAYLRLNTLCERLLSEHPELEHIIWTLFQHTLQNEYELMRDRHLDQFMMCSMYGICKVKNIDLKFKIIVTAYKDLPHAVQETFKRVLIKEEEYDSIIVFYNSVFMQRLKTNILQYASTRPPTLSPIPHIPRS

[3] = target: T3, Rb^P S751Y (human, UniProt P06400 380-788, S751Y); assay: as above
T3 construct: also called variant 72
T3 sequence (looked up): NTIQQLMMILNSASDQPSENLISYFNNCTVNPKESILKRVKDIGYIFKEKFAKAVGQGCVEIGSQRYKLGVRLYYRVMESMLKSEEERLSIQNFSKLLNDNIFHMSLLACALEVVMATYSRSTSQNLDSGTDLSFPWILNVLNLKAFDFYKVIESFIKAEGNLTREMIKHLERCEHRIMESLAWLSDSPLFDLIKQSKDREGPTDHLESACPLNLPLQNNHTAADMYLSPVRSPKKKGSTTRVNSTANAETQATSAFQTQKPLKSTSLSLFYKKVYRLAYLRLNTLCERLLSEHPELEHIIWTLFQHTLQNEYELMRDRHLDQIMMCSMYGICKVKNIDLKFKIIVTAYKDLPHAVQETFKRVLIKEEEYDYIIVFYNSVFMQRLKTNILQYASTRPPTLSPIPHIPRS

[4] = target: T4, Rb^P I703V (human, UniProt P06400 380-788, I703V); assay: fluorescence polarisation; 37 °C, after the 25 °C reading ramped over 7 min to 37 °C and 2 min incubation; unlabeled Rb^P against 1.5 nM TMR-E2F1^TD or 7.5 nM TMR-E7^LxCxE; 25 mM Tris pH 8.0, 200 mM NaCl, 1 mM DTT, 0.1% Tween-20; apparent Kd
T4 construct: also called variant 65
T4 sequence (looked up): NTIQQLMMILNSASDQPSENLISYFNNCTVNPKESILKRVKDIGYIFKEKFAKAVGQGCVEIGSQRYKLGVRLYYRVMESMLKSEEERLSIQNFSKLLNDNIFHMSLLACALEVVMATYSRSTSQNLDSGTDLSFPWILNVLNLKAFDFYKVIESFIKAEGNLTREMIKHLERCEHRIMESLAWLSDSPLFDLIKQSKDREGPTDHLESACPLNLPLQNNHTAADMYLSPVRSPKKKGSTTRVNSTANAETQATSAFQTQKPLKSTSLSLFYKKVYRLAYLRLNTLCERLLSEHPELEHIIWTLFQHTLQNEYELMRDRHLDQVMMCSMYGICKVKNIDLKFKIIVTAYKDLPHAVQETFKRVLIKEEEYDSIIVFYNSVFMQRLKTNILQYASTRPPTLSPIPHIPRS

[5] = target: T5, Rb^P E693A (human, UniProt P06400 380-788, E693A); assay: as above
T5 construct: also called variant 60
T5 sequence (looked up): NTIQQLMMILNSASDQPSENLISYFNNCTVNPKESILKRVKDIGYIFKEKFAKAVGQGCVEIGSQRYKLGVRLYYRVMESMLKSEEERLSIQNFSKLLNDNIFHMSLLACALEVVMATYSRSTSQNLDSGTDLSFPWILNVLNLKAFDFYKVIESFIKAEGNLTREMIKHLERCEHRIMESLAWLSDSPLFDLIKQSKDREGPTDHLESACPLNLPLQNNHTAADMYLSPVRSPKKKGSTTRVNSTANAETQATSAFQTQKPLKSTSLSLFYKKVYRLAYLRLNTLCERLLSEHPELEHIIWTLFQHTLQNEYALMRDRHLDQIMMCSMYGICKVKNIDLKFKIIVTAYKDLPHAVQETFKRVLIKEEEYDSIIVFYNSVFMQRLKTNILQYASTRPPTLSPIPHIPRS

Row | Binder | Kd [1] [nM] | Kd [2] [nM] | Kd [3] [nM] | Kd [4] [nM] | Kd [5] [nM]
1 | {TMR}-GEGIRDLFDCDFGDLTPLD (also called E2F^TD; source: synthetic peptide, bought: GenScript) [TMR-E2F1^TD, peptide of the E2F1 transactivation domain] | 46 | 94 | 28 | 99 | 59
2 | DLYCYEQLN (also: TMR label, position not given here, source: synthetic peptide, bought: GenScript) [TMR-E7^LxCxE, LxCxE peptide of the E7 oncoprotein from HPV] | 14 | 53 | 119 | 53 | 24
